Assays:
[1] = target: T1, Pou4f2D4;Isl1 (mouse;mouse, UniProt Q63934;P61372 169-411;1-349, |); assay: EMSA; ternary complex; EMSA: 20 mM Tris-HCl pH 7.5, 50 mM NaCl, 10 mM DTT, 1 mM EDTA, 5% glycerol, 200 ng dI/dC, 200 ng each protein in 20 ul, 4 C, 30 min; 8% PAGE, 1x TBE, 4 C; conditions: protein: recombinant;recombinant; tags: His (C-terminal);His (C-terminal, pET-28a); copies: 1;1; (radiolabel, Klenow fill-in); 5' overhang 1 nt at both ends before fill-in
T1 sequence 1: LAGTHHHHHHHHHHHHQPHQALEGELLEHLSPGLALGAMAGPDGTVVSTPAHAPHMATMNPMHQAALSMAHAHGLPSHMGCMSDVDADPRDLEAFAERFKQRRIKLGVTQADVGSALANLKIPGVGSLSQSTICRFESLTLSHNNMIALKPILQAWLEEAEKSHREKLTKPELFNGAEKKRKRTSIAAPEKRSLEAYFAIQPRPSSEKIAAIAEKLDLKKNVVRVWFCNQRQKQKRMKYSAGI
T1 sequence 2: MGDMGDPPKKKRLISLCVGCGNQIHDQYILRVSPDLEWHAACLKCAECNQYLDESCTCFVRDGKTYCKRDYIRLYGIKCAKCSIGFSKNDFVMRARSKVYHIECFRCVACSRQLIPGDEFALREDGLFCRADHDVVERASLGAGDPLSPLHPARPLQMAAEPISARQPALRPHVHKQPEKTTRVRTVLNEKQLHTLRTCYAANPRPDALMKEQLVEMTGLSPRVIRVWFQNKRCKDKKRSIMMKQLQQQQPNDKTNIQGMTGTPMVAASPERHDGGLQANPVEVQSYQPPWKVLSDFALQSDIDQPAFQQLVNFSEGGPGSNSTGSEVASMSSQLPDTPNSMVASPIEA

[2] = target: T2, Isl1D3;Pou4f2 (Brn3b) (mouse;mouse, UniProt P61372;Q63934 170-349;1-411, |); assay: as above; conditions: protein: recombinant;recombinant; tags: His (C-terminal);His (C-terminal, pET-28a); copies: 1;1; (radiolabel, Klenow fill-in); 5' overhang 1 nt at both ends before fill-in
T2 sequence 1: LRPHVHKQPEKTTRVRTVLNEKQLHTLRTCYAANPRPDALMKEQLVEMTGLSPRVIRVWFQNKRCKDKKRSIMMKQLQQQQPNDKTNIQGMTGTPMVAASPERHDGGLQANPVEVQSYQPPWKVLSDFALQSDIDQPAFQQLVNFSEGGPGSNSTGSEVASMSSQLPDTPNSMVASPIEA
T2 sequence 2: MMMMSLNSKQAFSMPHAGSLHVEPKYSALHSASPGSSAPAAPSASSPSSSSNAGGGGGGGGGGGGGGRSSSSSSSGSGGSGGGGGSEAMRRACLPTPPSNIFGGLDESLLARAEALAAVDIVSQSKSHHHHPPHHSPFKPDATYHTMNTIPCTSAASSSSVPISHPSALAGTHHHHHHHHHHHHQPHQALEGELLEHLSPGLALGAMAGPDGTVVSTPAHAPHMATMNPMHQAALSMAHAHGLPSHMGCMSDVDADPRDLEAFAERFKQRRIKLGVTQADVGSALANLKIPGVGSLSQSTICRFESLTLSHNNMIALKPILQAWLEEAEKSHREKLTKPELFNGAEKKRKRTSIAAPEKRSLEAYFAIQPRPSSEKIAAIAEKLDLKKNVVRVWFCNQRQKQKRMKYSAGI

[3] = target: T3, Isl1D5;Pou4f2 (Brn3b) (mouse;mouse, UniProt P61372;Q63934 74-349;1-411, |); assay: as above; conditions: protein: recombinant;recombinant; tags: His (C-terminal);His (C-terminal, pET-28a); copies: 1;1; (radiolabel, Klenow fill-in); 5' overhang 1 nt at both ends before fill-in
T3 sequence 1: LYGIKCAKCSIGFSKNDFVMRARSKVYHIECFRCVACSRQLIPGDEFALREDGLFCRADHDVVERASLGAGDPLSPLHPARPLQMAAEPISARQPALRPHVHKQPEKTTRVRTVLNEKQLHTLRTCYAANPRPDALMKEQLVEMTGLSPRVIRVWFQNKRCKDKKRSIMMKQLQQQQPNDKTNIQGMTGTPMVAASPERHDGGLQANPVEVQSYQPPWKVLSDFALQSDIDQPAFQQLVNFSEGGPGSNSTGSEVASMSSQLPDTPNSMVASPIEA
T3 sequence 2: T2 sequence 2

[4] = target: T4, Pou4f2 (Brn3b);Isl1 (mouse;mouse, UniProt Q63934;P61372 1-411;1-349, |); assay: as above; conditions: protein: recombinant;recombinant; tags: His (C-terminal, pET-28a);His (C-terminal, pET-28a); copies: 1;1; (radiolabel, Klenow fill-in); 5' overhang 1 nt at both ends before fill-in
T4 sequence 1: T2 sequence 2
T4 sequence 2: T1 sequence 2

[5] = target: T5, Isl1D4;Pou4f2 (Brn3b) (mouse;mouse, UniProt P61372;Q63934 146-349;1-411, |); assay: as above; conditions: protein: recombinant;recombinant; tags: His (C-terminal);His (C-terminal, pET-28a); copies: 1;1; (radiolabel, Klenow fill-in); 5' overhang 1 nt at both ends before fill-in
T5 sequence 1: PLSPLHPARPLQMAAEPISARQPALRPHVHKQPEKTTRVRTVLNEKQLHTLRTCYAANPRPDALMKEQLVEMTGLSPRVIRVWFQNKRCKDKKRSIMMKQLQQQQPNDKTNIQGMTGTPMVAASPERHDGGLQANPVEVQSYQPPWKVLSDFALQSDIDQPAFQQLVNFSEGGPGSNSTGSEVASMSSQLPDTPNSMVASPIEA
T5 sequence 2: T2 sequence 2

[6] = target: T6, Pou4f2D5;Isl1 (mouse;mouse, UniProt Q63934;P61372 125-411;1-349, |); assay: as above; conditions: protein: recombinant;recombinant, tags: His (C-terminal);His (C-terminal, pET-28a), copies: 1;1
T6 sequence 1: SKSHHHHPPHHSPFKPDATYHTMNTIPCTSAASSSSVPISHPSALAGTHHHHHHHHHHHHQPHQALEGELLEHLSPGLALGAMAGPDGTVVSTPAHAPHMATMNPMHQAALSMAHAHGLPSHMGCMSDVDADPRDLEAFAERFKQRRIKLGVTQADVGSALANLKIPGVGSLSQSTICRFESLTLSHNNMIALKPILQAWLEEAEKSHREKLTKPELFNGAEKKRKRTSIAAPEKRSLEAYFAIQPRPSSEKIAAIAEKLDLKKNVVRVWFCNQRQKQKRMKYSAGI
T6 sequence 2: T1 sequence 2

[7] = target: T6, Pou4f2D5;Isl1; assay: EMSA; EMSA: 20 mM Tris-HCl pH 7.5, 50 mM NaCl, 10 mM DTT, 1 mM EDTA, 5% glycerol, 200 ng dI/dC, 200 ng each protein in 20 ul, 4 C, 30 min; 8% PAGE, 1x TBE, 4 C; conditions: protein: recombinant;recombinant, tags: His (C-terminal);His (C-terminal, pET-28a), copies: 1;1
[8] = target: T4, Pou4f2 (Brn3b);Isl1; assay: as above; conditions: protein: recombinant;recombinant; tags: His (C-terminal, pET-28a);His (C-terminal, pET-28a); copies: 1;1; (radiolabel, Klenow fill-in); 5' overhang 1 nt at both ends before fill-in
[9] = (radiolabel, Klenow fill-in), 5' overhang 1 nt at both ends before fill-in

B1: SBRN3(W) (dsDNA)
DNA 1: GCACACGACCCAATGAATTAATAACCGGGCTG
DNA 2: GCAGCCCGGTTATTAATTCATTGGGTCGTGTG
binding result [1]: binds
binding result [2]: binds
binding result [3]: binds
binding result [4]: binds
binding result [5]: binds
binding result [6, 9]: binds

B2: EBF3(W) (dsDNA)
DNA 1: GTGCGTTAATATTTTAATTAATCGGGAAAA
DNA 2: TTTTCCCGATTAATTAAAATATTAACGCAC
binding result ([6]; (radiolabel, Klenow), blunt): binds

B3: EBF3(M) (dsDNA)
DNA 1: GTGCGTTGCTATTTTCGTTGCTCGGGAAAA
DNA 2: TTTTCCCGAGCAACGAAAATAGCAACGCAC
binding result ([7]; (radiolabel, Klenow), blunt): no binding

B4: SBRN3(M) (dsDNA)
DNA 1: GCACACGACCCAGCGCGTTGACAACCGGGCTG
DNA 2: GCAGCCCGGTTGTCAACGCGCTGGGTCGTGTG
binding result [8]: no binding

B5: CBRN3(M) (dsDNA)
DNA 1: GATCTCTCCTGCGCGGTTGACTACCCCCGGAT
DNA 2: GATCCGGGGGTAGTCAACCGCGCAGGAGAGAT
binding result [8]: no binding

B6: CBRN3(W) (dsDNA)
DNA 1: GATCTCTCCTGCATAATTAATTACCCCCGGAT
DNA 2: GATCCGGGGGTAATTAATTATGCAGGAGAGAT
binding result [1]: binds
binding result [2]: binds
binding result [3]: binds
binding result [4]: binds
binding result [5]: binds
binding result [6, 9]: binds

B7: IRX6(W) (dsDNA)
DNA 1: GTACTACTAATTAATTAATTGCAAACATTTC
DNA 2: GGAAATGTTTGCAATTAATTAATTAGTAGTA
binding result [6, 9]: binds

B8: IRX6(M) (dsDNA)
DNA 1: TACTACTGCTTCGTTGCTTGCAAACATTTC
DNA 2: GGAAATGTTTGCAAGCAACGAAGCAGTAGTA
binding result ([7]; (radiolabel, Klenow fill-in), one end blunt, lower strand 5' overhang 1 nt before fill-in): no binding

Source: article PMC3958441, “Isl1 and Pou4f2 Form a Complex to Regulate Target Genes in Developing Retinal Ganglion Cells” (PLoS ONE, 2014)
